B1: Noggin: BMP antagonist / BMP inhibitor (R&D Systems) (protein, UniProt Q13253 28-232, looked up)
Noggin: QHYLHIRPAPSDNLPLVDLIEHPDPIFDPKEKDLNETLLRSLLGGHYDPGFMATSPPEDRPGGGGGAAGGAEDLAELDQLLRQRPSGAMPSEIKGLEFSEGLAQGKKQRLSKKLRRKLQMWLWSQTFCPVLYAWNDLGSRFWPRYVKVGSCFSKRSCSVPEGMVCKPSKSVHLTVLRWRCQRRGGQRCGWIPIQYPIISECKCSC
B2: Wnt3a: recombinant WNT3A, Wnt ligand (R&D Systems) (protein, UniProt P56704 19-352, looked up)
Protein Wnt-3a: SYPIWWSLAVGPQYSSLGSQPILCASIPGLVPKQLRFCRNYVEIMPSVAEGIKIGIQECQHQFRGRRWNCTTVHDSLAIFGPVLDKATRESAFVHAIASAGVAFAVTRSCAEGTAAICGCSSRHQGSPGKGWKWGGCSEDIEFGGMVSREFADARENRPDARSAMNRHNNEAGRQAIASHMHLKCKCHGLSGSCEVKTCWWSQPDFRAIGDFLKDKYDSASEMVVEKHRESRGWVETLRPRYTYFKVPTERDLVYYEASPNFCEPNPETGSFGTRDRTCNVSSHGIDGCDLLCCGRGHNARAERRREKCRCVFHWCCYVSCQECTRVYDVHTCK

What was measured:
[1] = tested on: hPSC-derived definitive endoderm (DE) cultures; assay: Endoderm patterning of hPSC-derived DE cultures with growth factors/antagonists, qPCR and immunofluorescence; format: cell-based, human
Description: Following DE induction, cells were treated for three days with growth factors/antagonists in RPMI 1640 with 2.0% dFBS. […] RA (2 μM; Sigma Aldrich) is added on the final day. Three-dimensional growth and antral specification. Posterior foregut spheroids were embedded in Matrigel (BD Biosciences) as previously described^10, 12 and subsequently grown in Advanced DMEM/F12 (Invitrogen) supplemented with N2 (Invitrogen), B27 (Invitrogen), L-glutamine, 10 μM HEPES, penicillin/streptomycin, and EGF (100 ng ml^−1; R&D Systems). For antral specification, RA and noggin were added for the first three days of three-dimensional growth. For endocrine cell specification, the EGF concentration is lowered to 10 ng ml^−1 at day 30.
The media was changed every day.
All tissues were fixed in 4% paraformaldehyde for either one hour at room temperature for frozen processing or overnight at 4° C. for paraffin processing. For frozen sections, tissue was protected in 30% sucrose overnight at 4° C., then embedded in OCT (Tissue-Tek), and cut at 10 μm. For paraffin sections, tissue was processed through a graded ethanol series, followed by xylene, and then embedded in paraffin and cut at 7 μm. Tissue culture cells were fixed for 15 minutes at room temperature and stained directly. For staining, frozen slides were thawed to room temperature and rehydrated in PBS, while paraffin slides were deparaffinized and subjected to antigen retrieval. Slides were blocked in 5% normal donkey serum (Jackson Immuno Research) in PBS plus 0.5% Triton-X for 30 minutes at room temperature. Primary antibodies (listed in Methods Table 1) were diluted in blocking buffer and incubated overnight at 4° C. Slides were washed in PBS and incubated with secondary antibody for one hour at room temperature, and coverslips were mounted using Fluoromount-G (Southern Biotech). Confocal images were captured on a Nikon A1Rsi inverted confocal microscope.

[2] = tested on: hPSC-derived foregut spheroids; assay: Fundus specification protocol: Wnt signaling at days 6-9 of gastric organoid differentiation, qPCR; format: cell-based, human; conditions: Wnt3a at 100 ng/mL and 500 ng/mL
Description: Next, the function of Wnt signaling in the regulation of fundus-antrum patterning at days 6-9 of the gastric organoid differentiation protocol was tested. Addition of Wnt3a (at 100 ng/mL and 500 ng/mL) had no effect on spheroid gene expression, but it […] expression of the Wnt target gene Axin2. Thus, the effects of the small molecule CHIR99021 (CHIR; 2 uM) were tested. CHIR99021 stimulates Wnt signaling in a receptor-independent fashion.
Analysis was performed using the ΔΔCT method.

[3] = DE cultures after three days, even in the presence of WNT/FGF

Molecule	CDX2 expression [1, 3]	foregut marker SOX2 expression [1, 3]	BMP target genes MSX1/2, qPCR ([1]; response to noggin)	effect on spheroid gene expression [2]	expression of the Wnt target gene Axin2 [2]
B1	repressed	induced	suppressed		
B2				no effect	did induce

Reference: patent publication US12241090B2, “Methods and systems for converting precursor cells into gastric tissues through directed differentiation” (CHILDREN'S HOSPITAL MEDICAL CENTER, priority 2014, dated 2025)
